Values of other authors in patent US20260055200A1, “COMBINATION THERAPIES” (Alligator Bioscience AB, priority 2022, published 2026).
Read-outs that look alike come from different tables or passages of the source.

What was measured:
[1] = system: metastatic pancreatic cancer; details: standard first-line treatment; cited from earlier work
[2] = system: metastatic pancreatic cancer; details: MPACT study; cited from earlier work
[3] = system: metastatic pancreatic cancer; details: PRODIGE 4, 342 patients; cited from earlier work
[4] = system: previously untreated pancreatic cancer; details: cited from earlier work
[5] = system: previously untreated metastatic pancreatic cancer; details: cited from earlier work
[6] = in combination with Gem-NabPac with or without nivolumab

Nc1ccn([C@@H]2O[C@H](CO)[C@@H](O)C2(F)F)c(=O)n1 [gemcitabine]
median overall survival (mOS) [1]: about 6 months
ORR [2]: 7%
mOS [2]: 6.7 months
mOS [3]: 6.8 months
objective response rate (ORR) [3]: 9.4%

Selicrelumab: CD40 agonistic monoclonal antibody, with an IgG2 format
DLT ([4]; 0.2 mg/kg dose level, with gemcitabine): One DLT, a cerebrovascular accident
proportion of patients with liver enzyme elevations ([4]; all grade 1-2, with gemcitabine): approximately ⅔
dose up to which the combination was well tolerated ([4]; in combination with gemcitabine): up to 0.2 mg/kg
complete responses ([4]; with gemcitabine): no complete responses (CR) were observed
patients with cytokine release syndrome in relation to the infusion ([4]; with gemcitabine): 20 of the 22
response rate ([4]; with gemcitabine): 19%

B1: APX005M: CD40 agonistic monoclonal antibody, with a mutated IgG1 format for improved binding to FcγR2b (antibody, chains of the INN, looked up, V domains shown)
VH: QVQLVESGGGVVQPGRSLRLSCAASGFSFSSTYVCWVRQAPGKGLEWIACIYTGDGTNYSASWAKGRFTISKDSSKNTVYLQMNSLRAEDTAVYFCARPDITYGFAINFWGPGTLVTVSS
VL: DIQMTQSPSSLSASVGDRVTIKCQASQSISSRLAWYQQKPGKPPKLLIYRASTLASGVPSRFSGSGSGTDFTLTISSLQPEDVATYYCQCTGYGISWPIGGGTKVEIK
Complete Response, patients ([5]; Total (N = 24)): 0
Not Evaluable, patients (%) ([5]; Total (N = 24)): 1 (4%)
Partial Response, patients (%) ([5]; Total (N = 24)): 13 (54%)
Progressive Disease, patients (%) ([5]; Total (N = 24)): 1 (4%)
Stable Disease, patients (%) ([5]; Total (N = 24)): 9 (38%)
circulating mutant KRAS DNA [5, 6]: marked and rapid decrease
immune profiling of PBMCs, myeloid compartment [5, 6]: rapid activation of DCs in most patients
